Laboratory results reported in article PMC7067828, “FAM111A protects replication forks from protein obstacles via its trypsin-like domain”.

What was measured:
[1] = molecular target: MBP-FAM111A 1-282 (human, UniProt Q96PZ2 1-282); assay: EMSA; 5 mM Mg2+; EMSA: 25 mM Tris-HCl pH 7.5, 5 mM MgCl2, 10% glycerol, 20 ng/ul BSA, 1 mM DTT, 0.7 pmol DNA in 10 ul, on ice 1 h; FP: 10 mM HEPES-NaOH pH 7.5, 150 mM NaCl, 10 nM DNA; conditions: protein: recombinant; tags: N-terminal MBP; label: 5' IRDye700; single strand
Sequence of MBP-FAM111A 1-282 (Q96PZ2 1-282): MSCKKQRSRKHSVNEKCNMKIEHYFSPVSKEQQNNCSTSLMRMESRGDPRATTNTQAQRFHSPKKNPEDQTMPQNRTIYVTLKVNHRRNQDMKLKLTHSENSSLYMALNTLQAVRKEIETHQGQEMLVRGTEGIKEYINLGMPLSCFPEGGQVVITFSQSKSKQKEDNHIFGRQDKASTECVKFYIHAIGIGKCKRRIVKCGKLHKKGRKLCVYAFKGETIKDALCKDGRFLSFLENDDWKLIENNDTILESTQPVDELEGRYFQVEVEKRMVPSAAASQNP

[2] = molecular target: T1, GST-FAM111A-strep (human, UniProt Q96PZ2 1-611); assay: as above; conditions: protein: recombinant, tags: N-terminal GST, C-terminal tandem Strep
T1 sequence (Q96PZ2 whole entry): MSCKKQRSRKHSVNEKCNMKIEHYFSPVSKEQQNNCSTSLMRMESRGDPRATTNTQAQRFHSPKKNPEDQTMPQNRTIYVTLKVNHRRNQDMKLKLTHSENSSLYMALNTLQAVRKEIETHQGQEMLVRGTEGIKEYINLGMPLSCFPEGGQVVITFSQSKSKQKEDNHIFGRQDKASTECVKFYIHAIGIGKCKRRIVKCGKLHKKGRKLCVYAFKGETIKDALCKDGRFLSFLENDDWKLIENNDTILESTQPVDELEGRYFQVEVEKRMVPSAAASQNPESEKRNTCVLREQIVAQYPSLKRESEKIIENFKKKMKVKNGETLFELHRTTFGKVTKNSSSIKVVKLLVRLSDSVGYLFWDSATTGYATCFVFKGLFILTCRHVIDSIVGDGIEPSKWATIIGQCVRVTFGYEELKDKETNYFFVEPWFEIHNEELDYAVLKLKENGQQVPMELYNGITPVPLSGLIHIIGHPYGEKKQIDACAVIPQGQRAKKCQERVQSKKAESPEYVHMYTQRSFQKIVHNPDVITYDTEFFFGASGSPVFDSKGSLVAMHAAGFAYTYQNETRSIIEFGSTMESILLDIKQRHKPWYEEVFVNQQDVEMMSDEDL

[3] = molecular target: MBP-FAM111A 176-282 (human, UniProt Q96PZ2 176-282); assay: as above; conditions: protein: recombinant; tags: N-terminal MBP; label: 5' IRDye700; single strand
Sequence of MBP-FAM111A 176-282 (Q96PZ2 176-282): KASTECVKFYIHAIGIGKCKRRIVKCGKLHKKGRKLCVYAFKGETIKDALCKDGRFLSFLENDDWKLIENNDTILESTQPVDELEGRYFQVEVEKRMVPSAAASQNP

[4] = molecular target: T1, GST-FAM111A-strep; assay: EMSA; 5 mM Mg2+; up to 450 nM protein; EMSA: 25 mM Tris-HCl pH 7.5, 5 mM MgCl2, 10% glycerol, 20 ng/ul BSA, 1 mM DTT, 0.7 pmol DNA in 10 ul, on ice 1 h; FP: 10 mM HEPES-NaOH pH 7.5, 150 mM NaCl, 10 nM DNA; conditions: protein: recombinant; tags: N-terminal GST, C-terminal tandem Strep; label: 5' IRDye700 on strand 1; fork 1:2 1:3 2:4; both arms double-stranded
[5] = molecular target: Strep-FAM111A (human, UniProt Q96PZ2 1-611); assay: fluorescence polarization; EMSA: 25 mM Tris-HCl pH 7.5, 5 mM MgCl2, 10% glycerol, 20 ng/ul BSA, 1 mM DTT, 0.7 pmol DNA in 10 ul, on ice 1 h; FP: 10 mM HEPES-NaOH pH 7.5, 150 mM NaCl, 10 nM DNA; conditions: protein: recombinant; tags: N-terminal tandem Strep; label: 5' 6-FAM; single strand
Sequence of Strep-FAM111A (Q96PZ2 whole entry): as the sequence (Q96PZ2 whole entry) above

B1: ssDNA O3063 (75 nt) (ssDNA)
DNA: GTTTTCCCAGTCACGACGATGCTCCGGTACTCCAGTGTAGGCATATTACGAATTCTTGAGGCAGGCATGGTAGCT
Q: What does the source list for B1?
A: binding result [1]: binds; binding result ([2]; label: 5' IRDye700, single strand): binds; binding result [3]: binds

B2: Y fork O3063/O4787 (mixed)
DNA 1: GTTTTCCCAGTCACGACGATGCTCCGGTACTCCAGTGTAGGCATATTACGAATTCTTGAGGCAGGCATGGTAGCT
DNA 2: AGCTACCATGCCTGCCTCAAGAATTCGTAATATGCCTACACTGGACCGTACTTCGCCTAGTAGACTGCCTTCCCG
Q: Does B2 bind ([2]; label: 5' IRDye700 on strand 1, fork 1:2, 45 bp duplex, two 30-nt ss arms)?
A: binds

B3: dsY fork O3063/O4787/O3730/O3757 (dsDNA)
DNA 1: GTTTTCCCAGTCACGACGATGCTCCGGTACTCCAGTGTAGGCATATTACGAATTCTTGAGGCAGGCATGGTAGCT
DNA 2: AGCTACCATGCCTGCCTCAAGAATTCGTAATATGCCTACACTGGACCGTACTTCGCCTAGTAGACTGCCTTCCCG
DNA 3: GTACCGGAGCATCGTCGTGACTGGGAAAAC
DNA 4: CGGGAAGGCAGTCTACTAGGCGAAGTACGG
Q: Does B3 bind [4]?
A: no binding

Q: How did the Kd [5] turn out when CGACGATGCTCCGGTACTCCAGTGTAGGCAT (ssDNA) [6-FAM-O1676 (31 nt)] was run?
A: ~60 nM
